This experiment has as its target murine P2X purinoceptor 4 (Q9JJX6) (mouse) (UniProt Q9JJX6). Description: cell-based or functional assay.
Chain of UniProt Q9JJX6 (Q9JJX6 whole entry, form in doubt): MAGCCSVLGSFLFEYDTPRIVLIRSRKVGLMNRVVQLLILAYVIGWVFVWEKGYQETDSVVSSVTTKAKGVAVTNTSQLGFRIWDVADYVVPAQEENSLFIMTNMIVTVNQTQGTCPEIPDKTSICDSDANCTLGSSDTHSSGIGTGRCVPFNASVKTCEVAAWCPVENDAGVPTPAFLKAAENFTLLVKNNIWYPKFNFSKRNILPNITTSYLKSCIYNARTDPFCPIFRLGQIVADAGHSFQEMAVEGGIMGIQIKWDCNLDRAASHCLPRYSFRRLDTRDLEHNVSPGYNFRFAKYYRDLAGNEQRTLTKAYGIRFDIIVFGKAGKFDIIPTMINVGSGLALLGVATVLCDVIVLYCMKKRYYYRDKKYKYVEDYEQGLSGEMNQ

hIgG1 NIP 228 TM (antibody) returned a fraction of control current (fraction of control current) of 1.08.
